Assay results: patent US20230121197A1, “ANTIBODIES SPECIFICALLY BINDING THE CARBOXYMETHYLATED CATALYTIC SUBUNIT OF PROTEIN PHOSPHATASE 2A” (Medizinische Universität Wien, priority 2020, published 2023)

T1: mouse HA PP4c, carboxymethylated (immunoprecipitated from NIH3T3 cells) (mouse) (UniProt P97470)
T1 sequence (C-terminal leucine α-carboxyl methyl ester (cellular methylation), looked up): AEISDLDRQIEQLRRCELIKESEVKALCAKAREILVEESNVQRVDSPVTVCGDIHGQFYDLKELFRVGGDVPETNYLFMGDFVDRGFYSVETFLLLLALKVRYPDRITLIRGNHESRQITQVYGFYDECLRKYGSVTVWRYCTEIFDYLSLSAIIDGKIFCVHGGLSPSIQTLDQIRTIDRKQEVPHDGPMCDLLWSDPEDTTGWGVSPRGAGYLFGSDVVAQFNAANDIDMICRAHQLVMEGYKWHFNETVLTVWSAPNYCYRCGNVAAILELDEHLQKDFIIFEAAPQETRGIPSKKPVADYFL

B1: 7C10-C5: α-carboxymethylation specific mouse monoclonal IgG1 antibody from single clone hybridoma 7C10-C5 (DSM ACC3350) (antibody)
heavy: MYRMQLLSCIALSLALVTNSDVQLQESGPGLVKPSQSLSLTCSVTGYSITSGYYWNWIRQFPGNKLEWMGYISYDGSNNYNPSLKNRISITRDTSKNQFFLKLNSVTTEDTATYYCAGRFAYWGQGTLVTVSAAKTTAPSVYPLAPVCGDTTGSSVTLGCLVKGYFPEPVTLTWNSGSLSSGVHTFPAVLQSDLYTLSSSVTVTSSTWPSQSITCNVAHPASSTKVDKKIEPRGPTIKPCPPCKCPAPNLLGGPSVFIFPPKIKDVLMISLSPIVTCVVVDVSEDDPDVQISWFVNNVEVHTAQTQTHREDYNSTLRVVSALPIQHQDWMSGKEFKCKVNNKDLPAPIERTISKPKGSVRAPQVYVLPPPEEEMTKKQVTLTCMVTDFMPEDIYVEWTNNGKTELNYKNTEPVLDSDGSYFMYSKLRVEKKNWVERNSYSCSVVHEGLHNHHTTKSFSRTPGK
light: MDMRVPAQLLGLLLLWLSGARCDVLMTQTPLSLPVSLGDQASISCRSSQSIVHSNGNTYLEWYLQKPGQSPKLLIYKVSNRFSGVPDRFSGSGSGTDFTLKINRVEAEDLGVYYCFQGSHVPWTFGGGTKLEIKADAAPTVSIFPPSSEQLTSGGASVVCFLNNFYPKDINVKWKIDGSERQNGVLNSWTDQDSKDSTYSMSSTLTLTKDEYERHNSYTCEATHKTSTSPIVKSFNRNEC
modifications: Amino acid sequence of the recombinant 7C10-C5 heavy chain; Amino acid sequence of the recombinant 7C10-C5 light chain
B2: 7C10-C5 monoclonal antibody (antibody, V domains shown)
VH: DVQLQESGPGLVKPSQSLSLTCSVTGYSITSGYYWNWIRQFPGNKLEWMGYISYDGSNNYNPSLKNRISITRDTSKNQFFLKLNSVTTEDTATYYCAGRFAYWGQGTLVTVSA
VL: DVLMTQTPLSLPVSLGDQASISCRSSQSIVHSNGNTYLEWYLQKPGQSPKLLIYKVSNRFSGVPDRFSGSGSGTDFTLKINRVEAEDLGVYYCFQGSHVPWTFGGGTKLEIK
notes: Used as hybridoma culture supernatant (ELISA, Western blot, IHC) or at 50 µg/mL (SPR); also called 7C10 X63; clone 7C10-C5

Experiments:
[1] = molecular target: α-carboxymethylated PP2Ac (Homo sapiens, UniProt P67775); assay: IHC specificity validation (NaOH treatment of slides); design: NaOH treatment to chemically remove the methyl group from the methylated PP2A-C; from tissue; host or cells: de-paraffinized tissue slides; details: slides incubated in 200 mM NaOH
Description: Immunohistochemical staining was performed on the DAKO Autostainer (DAKO, Carpinteria, Calif.) using Envision+ or liquid streptavidin-biotin and diaminobenzadine (DAB) as the chromogen. De-paraffinized sections were labeled with mouse monoclonal antibody 7C10-C5 (1:200) overnight at 4 C. Microwave 10 mM Tris HCl, pH9 containing 1 mM EDTA epitope retrieval was used prior to staining. Appropriate negative (no primary antibody) and positive controls (pancreas) were stained in parallel with each set of slides studied. Peptide competition studies were performed using 2 peptides ([…]*) (SEQ ID NO:115) differing in the methylation status at position L (marked with a *); FIG. 13E: Peptides were incubated at ambient temperature for 60 mins at 10-1000× molar ratios before being applied to the slide. FIG. 13F: Before being stained, slides were incubated in freshly made 200 mM NaOH for 10 mins at 4° C. and then neutralized by several washes in TBST.
Stained slides were scanned using an APERIO AT2 (Leica) and the digital images imported into QuPath (Bankhead et al., 2017). TMA cores were analyzed for percentage of cells staining and intensity. In FIGS. 13E and F, higher visibility of the dark cell nuclei indicates weaker α-carboxymethylated PP2Ac staining.

PP4 = assay: Summary of cross-reactivities of C-terminal PP2Ac antibodies (Table 4), PP4; details: antibodies screened for binding methylated PP2Ac
Text: Examples of antibodies with a preference for non-methylated PP2Ac are mouse monoclonal antibody 4B7 (Yu (2001), Mol Biol Cell 12, 185-199), mouse monoclonal antibody 1D7 generated by the Ogris lab but also the rabbit monoclonal E155 antibody from Abeam and the mouse monoclonal F-8 from SCBT that were thought to be specific for pTyr^307.

[2] = molecular target: T1, mouse HA PP4c, carboxymethylated (immunoprecipitated from NIH3T3 cells) (mouse); assay: Western blot quantification, signal normalized to HA level, HA-PP2A set to 1, N=3

α-carboxymethylated PP2Ac, sequence (P67775 whole entry): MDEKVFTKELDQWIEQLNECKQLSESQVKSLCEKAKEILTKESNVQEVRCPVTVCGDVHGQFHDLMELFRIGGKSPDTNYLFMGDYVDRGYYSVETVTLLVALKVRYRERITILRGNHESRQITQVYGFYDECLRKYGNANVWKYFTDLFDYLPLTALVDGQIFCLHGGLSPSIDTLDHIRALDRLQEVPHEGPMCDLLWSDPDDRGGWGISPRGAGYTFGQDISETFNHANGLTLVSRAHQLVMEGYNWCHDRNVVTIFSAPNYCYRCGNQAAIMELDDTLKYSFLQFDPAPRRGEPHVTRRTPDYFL

| Molecule | IHC staining after chemical removal of the methyl group [1] | PP4 meLeu^307 (PP4) | 7C10/HA blot signal relative to HA-PP2A = 1 [2] |
| --- | --- | --- | --- |
| B1 | diminished staining upon treatment with NaOH | — (— <15%) |  |
| B2 |  |  | 0.01 7C10/HA |
